The supplement of paper PMC9170038

System: MS2 coat protein
Test: apparent KD of MS2 coat protein; designed switch direction (-1 OFF switch, 1 ON switch): -1; higher = weaker reporter binding
In short: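 Designed RNA switches with common flanks were made on Illumina chips by stalled E. coli RNA polymerase. Titration with SNAP-549-labelled MS2 coat protein doubled from 0.7 or 1.5 nM up to 3 µM. Apparent KD is each design's median over clusters after curve-fitting normalised fluorescence.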

[1] = input ligand: microRNA oligo, concentration not stated
[2] = Eterna round: R95, input ligand: FMN 200 uM
[3] = Eterna round: R95, input ligand: microRNA oligo, concentration not stated
[4] = Eterna round: R95, input ligand: none

| Sequence | apparent KD of MS2 coat protein (input ligand: FMN 200 uM) [nM] | apparent KD of MS2 coat protein [1] [nM] | apparent KD of MS2 coat protein (input ligand: none) [nM] | apparent KD of MS2 coat protein [2] [nM] | apparent KD of MS2 coat protein [3] [nM] | apparent KD of MS2 coat protein [4] [nM] |
| --- | --- | --- | --- | --- | --- | --- |
| CGGGUGCGGUGAGGAUAUCCGAAAGGAAGUGUAGGAGAAGGCACCAAGAACAUGAGGAUCACCCAUGUGACCUCAUAAGCCCGG [PowerStrip EXNG 1.9] (Eterna round: R96, puzzle: Exclusion NG 1) | 34.9 | 254 | 406 | – | – | – |
| AGUGUGUGGCAGGAUAUUCUAAUCUUGAGGAGGGAAGAAGGGUCUACAUGAGGAUCACCCAUGUAAGCGGUUGA [Ex6 #41] (Eterna round: R97, puzzle: Exclusion 6) | 142 | – | 33.6 | – | – | – |
| GUCAGACGAGGAUAUAGAUUUAAGUACAUGAGGAUCACCCAUGUGCAUAUGUAUUUAGAUUUAGAAGGCGUCUGAC [E5/18-A3] (Eterna round: R97, puzzle: Exclusion 5) | 584 | – | 428 | – | – | – |
| AGACAGUCAGGAUAUACAUGAGGAUCACCCAUGUUGAGAUGAGAAAGGGCAGGAAUAGGUAGAAGGGACGAGAG [JR_Exclu3_Sub037] (puzzle: Exclusion 3) | – | – | – | 30.5 | 20.1 | 26.2 |
| GAUCAUGCAGGAUAUACAUAAACCAUGAAAACAUGGCUCAAACAUGAGGAUCACCCAUGUAGAAGGGCAUGAUC [Omei Ex2 A19] (Eterna round: R97, puzzle: Exclusion 2) | 69.1 | – | 31.5 | – | – | – |
| CUGAACCCGGUAGGAUAUAUUGUGGGCGGGCGUGGAACGACAUGAGGAUCACCCAUGUGAUUGAGGUAGAAGGGCCGAGAGGUU [Excl-NG2-LRO17] (Eterna round: R96, puzzle: Exclusion NG 2) | 42.6 | 31 | 42.8 | – | – | – |
| GGUGGACAUGAGGAUCACCCAUGUGAGGAUAUCGGCUGGUGCGUGGUGGCUGGCAUCUCGAGAAGGCACAUAGU [Exclusion 1 V67] (puzzle: Exclusion 1) | – | – | – | – | 70.5 | – |
| GUCCGGCAUGUAGGAUAUGGAUCCGAUUAGGAUUUAGAAGGACAUGAGGAUCACCCAUGUACAUUUAAUUAGUCAUUACCGGAC [EXclNG1-LROPPY03] (Eterna round: R96, puzzle: Exclusion NG 1) | 14.6 | 9.47 | 14.9 | – | – | – |
| CUUUCGUGAGGAUAUCAGUAGUAAAUAAAUAAAAUUACUACUGAGAAGGCACAUGAGGAUCACCCAUGUUCCUC [salish99_ex3_r3_096] (puzzle: Exclusion 4) | – | – | – | – | 23.5 | – |
| GUAAAUCAUGUAGGAUAUGCGUGGCGAAGCUAUGCAGAAGGACAUGAGGAUCACCCAUGUGCUUGCGUCCGCGUACGGAUGCAA [Mat - Exclusion NG 1 - Mod of JL - D70] (Eterna round: R96, puzzle: Exclusion NG 1) | 292 | 124 | 237 | – | – | – |
| UAUUCGCGAGGAUAUGCAGUCGAGUCCAUUACGUGUCUGGGACUUGAGGAUCACCCAAGUAGAAGGCGUCUCAU [salish99_ex2_r4_642] (Eterna round: R97, puzzle: Exclusion 2) | 124 | – | 123 | – | – | – |
| GGUCGACAUGAGGAUCACCCAUGUCAGGAUAUCGUCACUGGAGCUUCGGCUCCAGUGACGAGAAGGGAUAUAAU [E1/15-A1] (Eterna round: R97, puzzle: Exclusion 1) | 24.6 | – | 36.9 | – | – | – |
| AAGUCCGAGCGAGGAUAUUCACCUCAGUCAGCUGAAGAAGGCGCUAAGCGGUGAUUAUUUUGUACAUGAGGAUCACCCAUGUCA [Eternabot solution 49] (Eterna round: R96, puzzle: Exclusion NG 1) | 20.7 | 21.2 | 22.6 | – | – | – |
| UAGUUAUUCACAGGAUAUCGCCUCUUAUUACAUGAGGAUCACCCAUGUUUACUUAGUUACAUGUUCGAGAAGGGUGUAGCCGUU [JR_ExcNG2_Sub044] (Eterna round: R96, puzzle: Exclusion NG 2) | – | 301 | – | – | – | – |
| UGAUCAGACCGAGGAUAUACAUGUAGGACCCACGUGAGUGGGUCCAUUACAUGAGGAUCACCCAUGUAGAAGGCGGUCUGAUCU [JL ENG2 1.90] (Eterna round: R96, puzzle: Exclusion NG 2) | 313 | 97.7 | 139 | – | – | – |
| AGCAUCUGAGGAUAUACUGGGUAUGGAAGGCGAAGGGCCAGACAUGAGGAUCACCCAUGUAGAAGGCAGUUUGC [Esenonan] (Eterna round: R96, puzzle: Exclusion 2) | 39.2 | 42 | 65.4 | – | – | – |

| Sequence | apparent KD of MS2 coat protein (input ligand: FMN 200 uM) [nM] | apparent KD of MS2 coat protein [1] [nM] | apparent KD of MS2 coat protein (input ligand: none) [nM] | apparent KD of MS2 coat protein [2] [nM] | apparent KD of MS2 coat protein [3] [nM] | apparent KD of MS2 coat protein [4] [nM] |
| --- | --- | --- | --- | --- | --- | --- |
| AUACUCUUUGUGAGGAUAUCGUUUUCUUUACGGUUCGAGAAGGCACAUGAGGAUCACCCAUGUUUGACGUGAAU [JR_BMOE4_Sub094] (puzzle: Brourd's mod of Exclusion 4) | – | – | – | – | 21.2 | – |
| CUGGUCCGAGGAUAUAUUAAGUGAUACAUGAGGAUCACCCAUGUUAUUUGAUGGAUAUUAAUAGAAGGCGGACUAG [Mat - Exclusion 5 - JL mod - D75] (puzzle: Exclusion 5) | – | – | – | 31.9 | 18.8 | 28.7 |
| AUGUUGCGAGGAUAUAUAUGGAGGUUAAAAUUUGAUAUGGAACAUGAGGAUCACCCAUGUAGAAGGUGCAUAAC [JR_Ex2_Sub039] (Eterna round: R97, puzzle: Exclusion 2) | 155 | – | 57.5 | – | – | – |
| UGUACUAUGCGAGCUGACUUGCGUAGUGCAGCAGGUGAAACAUGAGGAUCACCCAUGUCCUCAUUUGCUCGUCUUAU [SL-sv3-2.02 JL mod] (puzzle: Sensor v3, turn-off variant 2) | – | – | – | 47.7 | 599 | 41.6 |
| UCGGGCGCAGGAUAUGCCUUCCGGUACAUGAGGAUCACCCAUGUCGGGCAGUGCUGCGGAGUAGAAGGGCGUUGAG [Eternabot (L2) Solution 74] (Eterna round: R97, puzzle: Exclusion 5) | 15.8 | – | 16.6 | – | – | – |
| GGUCCACAUGAGGAUCACCCAUGUUAGGAUAUCUCCCGCCUCCUCACUGGAGACGGACAGAGAAGGAACAUCAA [Vetibele] (Eterna round: R96, puzzle: Exclusion 1) | 104 | 20.5 | 24.3 | – | – | – |
| UUUCCCUGUGUGAGGAUAUACUUGUUUGGGUUUUUGUAGAAGGCACAUGAGGAUCACCCAUGUACUCUGUCCUG [JR_BME4_Sub022] (puzzle: Brourd's mod of Exclusion 4) | – | – | – | – | 22.1 | – |
| AAUUAGUCAGGAUAUACAUGAGGAUCACCCAUGUAAACUUUUAGUUUAAUUUGAAUGUGUAGAAGGGACAUUUA [Ex3 #47] (Eterna round: R97, puzzle: Exclusion 3) | 18.9 | – | 22.2 | – | – | – |
| GUUAUGUAAGGAUAUAUGAGUCACGGAAAUAAACCGUGAAGAUAGAAGGUACAUGAGGAUCACCCAUGUAAGGC [Mod of Anonveat 9 - Jieux - Exclusion 4] (Eterna round: R97, puzzle: Exclusion 4) | 16.7 | – | 14 | – | – | – |
| AGUACUAUGCGAGCUGACUUGCGUAGUGCAGCAGGUGGAACAUGAGGAUCACCCAUGUCCUCAUUUGCUCGUCUUAU [Mat - Sensor v3 - Turn-off var 2 - D4] (puzzle: Sensor v3, turn-off variant 2) | – | – | – | 30.2 | 120 | 26.8 |
| CCACGACAUGAGGAUCACCCAUGUGAGGAUAUGGCCAGUAUGGCGUGAGCUGAAUCAAUCAGAAGGCGCGUGGG [salish99_ex1_r4_056] (Eterna round: R97, puzzle: Exclusion 1) | 276 | – | 339 | – | – | – |
| GCGCACCUACCAAAAGGUAGGUCAACAUGAGGAUCACCCAUGUAGGAUAUCGAUUGCUUUGCAGUCGAGAAGGACGUGAUGCGC [JL ENG3 3.80 Mod 15] (Eterna round: R96, puzzle: Exclusion NG 3) | 38 | 24.5 | 34.3 | – | – | – |
| GAGAUGUGAGGAUAUCUAGACCGCGAAAGAGCCGCGGUCCGAGAGAAGGCACAUGAGGAUCACCCAUGUGAUGA [Tiesri] (puzzle: Exclusion 4) | – | – | – | – | 39.4 | – |
| AAUAAACAUGAGGAUCACCCAUGUCAGGAUAUACGAAGAAAGAAAGAAAGAAAGAAGAGUAGAAGGGAUAGGAA [Excls1-III] (puzzle: Exclusion 1) | – | – | – | 31.6 | 29.3 | 32.6 |
| AGGAUGUGAGGAUAUCCAUCCCGCGAAUGCGGGUAAUAAAUGGAGAAGGCACAUGAGGAUCACCCAUGUGAUGA [Laleatus] (Eterna round: R97, puzzle: Exclusion 4) | 978 | – | 47.8 | – | – | – |
